The source of these data is patent publication US20240270846A1 (published 2024).

Where a chain is given by its changes, count along the chain named. Names and notes keep the numbering of the source.

For this test, the target named is T1, CD3 epsilon homodimer protein (UniProt P07766 23-126).
T1 construct: also called CD3 (CD3 epsilon)
In words: SPR Biacore T200, CD3 epsilon homodimer immobilised on CM4, one-arm antibody as analyte, single-cycle kinetics; reference unaltered GLS3000 antibody.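 Note: CD3 epsilon homodimer attached to the CM4 chip via amine coupling, measured at 25 °C with HBS-EP+ as running buffer.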 For orientation: SPR reads the build-up and loss of mass on a sensor chip optically.

T1 sequence (P07766 23-126): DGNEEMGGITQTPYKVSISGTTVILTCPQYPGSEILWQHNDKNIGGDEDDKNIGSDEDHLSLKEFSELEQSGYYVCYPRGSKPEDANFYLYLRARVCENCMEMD

B1: GLS3000 Q93Y one-amino acid altered one-arm antibody (CE115HA000-pE22Hh / Kn010G3 / GLS3000 Q93Y-kappa) (antibody, human IgG1, kappa, L234A L235A, N297A, name in Kabat numbering)
heavy: QVQLVESGGGVVQPGRSLRLSCAASGFTFSNAWMHWVRQAPGKGLEWVAQIKAKSNNYATYYAESVKGRFTISRDDSKNSLYLQMNSLKTEDTAVYYCRYVHYGAYYGVDAWGQGTTVTVSSASTKGPSVFPLAPSSKSTSGGTAALGCLVKDYFPEPVTVSWNSGALTSGVHTFPAVLQSSGLYSLSSVVTVPSSSLGTQTYICNVNHKPSNTKVDKKVEPKSCDKTHTCPPCPAPEAAGGPSVFLFPPKPKDTLMISRTPEVTCVVVDVSHEDPEVKFNWYVDGVEVHNAKTKPREEQYASTYRVVSVLTVLHQDWLNGKEYKCKVSNKALPAPIEKTISKAKGQPREPQVYTLPPSRCELTKNQVSLSCAVKGFYPSDIAVEWESNGQPENNYKTTPPVLDSDGSFFLVSKLTVDKSRWQQGNVFSCSVMHEALHNHYTQKSLSLSPDYKDDDDK
chain: EPKSSDKTHTCPPCPAPELLGGPSVFLFPPKPKDTLMISRTPEVTCVVVDVSHEDPEVKFNWYVDGVEVHNAKTKPREEQYNSTYRVVSVLTVLHQDWLNGKEYKCKVSNKALPAPIEKTISKAKGQPREPQVCTLPPSRDELTKNQVSLWCLVKGFYPSDIAVEWESNGQPENNYKTTPPVLDSDGSFFLYSKLTVDKSRWQQGNVFSCSVMHEALHNRYTQKSLSLSP
light: DIVMTQSPLSLPVTPGEPASISCRSSQSLVHSNRNTYLHWYQQKPGQAPRLLIYKVSNRFSGVPDRFSGSGSGTDFTLKISRVEAEDVGVYYCGQGTYVPYTFGQGTKLEIKRTVAAPSVFIFPPSDEQLKSGTASVVCLLNNFYPREAKVQWKVDNALQSGNSQESVTEQDSKDSTYSLSSTLTLSKADYEKHKVYACEVTHQGLSSPVTKSFNRGEC
notes: One-arm antibody; substitution position in Kabat numbering; also called L chain altered form, Kabat 93 Q to Y
In the case of B1, the “dissociation constant KD(M) ratio of L chain altered form to GLS3000” value (shortened to “dissociation constant KD(M) ratio”) was 0.76 ratio.

B2: GLS3000 T97P one-amino acid altered one-arm antibody (CE115HA000-pE22Hh / Kn010G3 / GLS3000 T97P-kappa) (antibody, human IgG1, kappa, L234A L235A, N297A, name in Kabat numbering)
heavy: B1 heavy
chain: B1 chain
light: B1 light with Y98Q, T102P
notes: One-arm antibody; substitution position in Kabat numbering; also called L chain altered form, Kabat 97 T to P
With B2, the “dissociation constant KD(M) ratio” value stood at 3.35 ratio.

B3: GLS3000 R77S one-amino acid altered one-arm antibody (CE115HA000-pE22Hh / Kn010G3 / GLS3000 R77S-kappa) (antibody, human IgG1, kappa, L234A L235A, N297A, name in Kabat numbering)
heavy: B1 heavy
chain: B1 chain
light: B1 light with R82S, Y98Q
notes: One-arm antibody; substitution position in Kabat numbering; also called L chain altered form, Kabat 77 R to S
In the case of B3, the “dissociation constant KD(M) ratio” value stood at 0.94 ratio.

B4: GLS3000 V94W one-amino acid altered one-arm antibody (CE115HA000-pE22Hh / Kn010G3 / GLS3000 V94W-kappa) (antibody, human IgG1, kappa, L234A L235A, N297A, name in Kabat numbering)
heavy: B1 heavy
chain: B1 chain
light: B1 light with Y98Q, V99W
notes: One-arm antibody; substitution position in Kabat numbering; also called L chain altered form, Kabat 94 V to W
Turning to B4, the “dissociation constant KD(M) ratio” value was found to be 1.81 ratio.

B5: GLS3000 V94T one-amino acid altered one-arm antibody (CE115HA000-pE22Hh / Kn010G3 / GLS3000 V94T-kappa) (antibody, human IgG1, kappa, L234A L235A, N297A, name in Kabat numbering)
heavy: B1 heavy
chain: B1 chain
light: B1 light with Y98Q, V99T
notes: One-arm antibody; substitution position in Kabat numbering; also called L chain altered form, Kabat 94 V to T
In the case of B5, the “dissociation constant KD(M) ratio” value is 1.06 ratio.

B6: GLS3000 T92P one-amino acid altered one-arm antibody (CE115HA000-pE22Hh / Kn010G3 / GLS3000 T92P-kappa) (antibody, human IgG1, kappa, L234A L235A, N297A, name in Kabat numbering)
heavy: B1 heavy
chain: B1 chain
light: B1 light with T97P, Y98Q
notes: One-arm antibody; substitution position in Kabat numbering; also called L chain altered form, Kabat 92 T to P
For B6, the “dissociation constant KD(M) ratio” value was found to be 26.7 ratio.

B7: GLS3000 Q93R one-amino acid altered one-arm antibody (CE115HA000-pE22Hh / Kn010G3 / GLS3000 Q93R-kappa) (antibody, human IgG1, kappa, L234A L235A, N297A, name in Kabat numbering)
heavy: B1 heavy
chain: B1 chain
light: B1 light with Y98R
notes: One-arm antibody; substitution position in Kabat numbering; also called L chain altered form, Kabat 93 Q to R
Regarding B7, the “dissociation constant KD(M) ratio” value turned out to be 0.79 ratio.

B8: GLS3000 T92S one-amino acid altered one-arm antibody (CE115HA000-pE22Hh / Kn010G3 / GLS3000 T92S-kappa) (antibody, human IgG1, kappa, L234A L235A, N297A, name in Kabat numbering)
heavy: B1 heavy
chain: B1 chain
light: B1 light with T97S, Y98Q
notes: One-arm antibody; substitution position in Kabat numbering; also called L chain altered form, Kabat 92 T to S
B8: the “dissociation constant KD(M) ratio” value came out at 0.81 ratio.

B9: GLS3000 V94Y one-amino acid altered one-arm antibody (CE115HA000-pE22Hh / Kn010G3 / GLS3000 V94Y-kappa) (antibody, human IgG1, kappa, L234A L235A, N297A, name in Kabat numbering)
heavy: B1 heavy
chain: B1 chain
light: B1 light with Y98Q, V99Y
notes: One-arm antibody; substitution position in Kabat numbering; also called L chain altered form, Kabat 94 V to Y
B9: the “dissociation constant KD(M) ratio” value stood at 2.45 ratio.

B10: GLS3000 T92Y one-amino acid altered one-arm antibody (CE115HA000-pE22Hh / Kn010G3 / GLS3000 T92Y-kappa) (antibody, human IgG1, kappa, L234A L235A, N297A, name in Kabat numbering)
heavy: B1 heavy
chain: B1 chain
light: B1 light with T97Y, Y98Q
notes: One-arm antibody; substitution position in Kabat numbering; also called L chain altered form, Kabat 92 T to Y
As to B10, the “dissociation constant KD(M) ratio” value was determined as 2.55 ratio.

B11: GLS3000 V94Q one-amino acid altered one-arm antibody (CE115HA000-pE22Hh / Kn010G3 / GLS3000 V94Q-kappa) (antibody, human IgG1, kappa, L234A L235A, N297A, name in Kabat numbering)
heavy: B1 heavy
chain: B1 chain
light: B1 light with Y98Q, V99Q
notes: One-arm antibody; substitution position in Kabat numbering; also called L chain altered form, Kabat 94 V to Q
Regarding B11, the “dissociation constant KD(M) ratio” value is 1.1 ratio.
